Experimental data reported in the supplement of paper PMC9732359.
± gives the uncertainty stated by the source.

Assay: protein stability index of a GFP-peptide fusion (yeast GPS) (PSI 1-4); higher = more stable; sorted into four equal gates, so the index is relative within each strain
In short: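 Plasmids isolated from each sorting gate were PCR-amplified and Illumina-sequenced, and barcodes assigned the reads to strains. The gates, four of equal size, were set by GFP/Cherry fluorescence ratio on mid-log cultures in leucine-free medium. These cultures were yeast carrying a pooled library of tiled 17-residue yeast protein peptides fused downstream of GFP on a plasmid that also expresses Cherry. The protein stability index is the sum of every gate's read frequency times its gate number.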

Sequence	protein stability index (doa10∆)	protein stability index (pdr5∆)	protein stability index (san1∆)	protein stability index (ubr1∆)
DNTSHDEQDDDNVNSTT [BRN1]	3 ± 0.073	3.19 ± 0.088	3.17 ± 0.1	3.23 ± 0.062
DNVDDIGEFNVSMYQNS [YDL088C/ASM4]	3.41 ± 0.23	3.05 ± 0.28	2.94 ± 0.22	3.19 ± 0.23
DNYFNLQLNEAEEFVAG [SMX3]	2.76 ± 0.16	2.8 ± 0.16	2.5 ± 0.1	3.12 ± 0.12
DPAHSLNYTVINFKSRE [AAR2]	3.07 ± 0.054	3.1 ± 0.059	3.14 ± 0.046	3.22 ± 0.037
DPEEVEQQVAEEATTEE [RPS0A]	3.3 ± 0.086	3.33 ± 0.097	3.1 ± 0.077	3.56 ± 0.077
DPKSPTKRSIAIVFEEI [YMR129W/POM152]	2.73 ± 0.074	2.97 ± 0.087	2.77 ± 0.055	2.72 ± 0.078
DPLNSNIFSEAVKNKYN [PRP28]	1.81 ± 0.17	2.74 ± 0.11	3.02 ± 0.09	2.92 ± 0.096
DPQQVFDERIKFANQLH [RPN3]	1.68 ± 0.09	1.97 ± 0.12	1.41 ± 0.14	1.33 ± 0.075
DPSGSYFPWKATAIGKG [PRE8]	2.93 ± 0.1	2.68 ± 0.11	2.82 ± 0.077	3.13 ± 0.075
DQDRGAARHKQHEQGTF [RRI2]	3.21 ± 0.1	2.99 ± 0.23	–	–
DQEKKYGMSITETFEKP [RPB2]	2.85 ± 0.11	3.4 ± 0.18	3.15 ± 0.096	3.5 ± 0.1
DQFQWILRKPGKDCKLQ [RRI2]	2.62 ± 0.19	3.25 ± 0.17	3.26 ± 0.16	3.3 ± 0.16
DQHVINILWAIYNSASK [YCS4]	1.69 ± 0.044	2.22 ± 0.048	1.63 ± 0.077	1.59 ± 0.041
DQIAVCEISGSIEQLRN [BRN1]	3.27 ± 0.16	3.26 ± 0.19	3.11 ± 0.19	–
DQNNKKMVGLRGFNNQI [SNF2]	3.35 ± 0.065	3.22 ± 0.072	3.2 ± 0.072	3.37 ± 0.044
DQSISKLQSWDKVSSCF [NNF1]	1.51 ± 0.072	1.59 ± 0.069	1.42 ± 0.1	1.82 ± 0.053
DQVLNLCLTEFENCYLE [FAS1]	3.15 ± 0.1	3.2 ± 0.099	3.18 ± 0.14	3.25 ± 0.048
DRCVDPEDPYFNTLVRI [DIS3]	3.39 ± 0.11	3.41 ± 0.11	3.48 ± 0.058	3.4 ± 0.048
DRFKPNLDIAKDLIRTD [MED4]	3.38 ± 0.19	3.34 ± 0.19	2.82 ± 0.11	2.96 ± 0.14
DRGIANIRNNIESQNLD [SRB4]	3.12 ± 0.14	3.34 ± 0.12	2.98 ± 0.11	3.07 ± 0.067
DRKSIMPLKILLATKQH [CSN12]	1.9 ± 0.15	1.19 ± 0.055	1.53 ± 0.11	1.42 ± 0.058
DRNNSTNQIFQSRRYNL [SIN4]	2.78 ± 0.047	2.93 ± 0.049	2.71 ± 0.053	2.83 ± 0.039
DRVVSSDSLDIAQGIDL [SRP72]	2.85 ± 0.069	2.6 ± 0.062	2.27 ± 0.079	3 ± 0.079
DRYGNRYFWLDHNGVPF [ITC1]	2.8 ± 0.094	3.18 ± 0.098	2.92 ± 0.051	2.78 ± 0.082
DSEKHIDFAPTSPFGGA [RPS9A]	2.6 ± 0.06	2.65 ± 0.06	2.69 ± 0.068	2.68 ± 0.041
DSETSDPNEVEIKKLLA [DIS3]	2.9 ± 0.075	3.07 ± 0.069	2.82 ± 0.075	3.27 ± 0.094

Sequence	protein stability index (doa10∆)	protein stability index (pdr5∆)	protein stability index (san1∆)	protein stability index (ubr1∆)
DSIASVLSPDSNIMSDS [GAL11]	2.74 ± 0.1	2.98 ± 0.073	3.03 ± 0.064	3.09 ± 0.099
DSIGSTRVEGSGGGDSE [RPT6]	2.6 ± 0.1	2.65 ± 0.11	3.1 ± 0.065	2.97 ± 0.064
DSILNYAKSEFDNVASV [ECM29]	3.22 ± 0.11	3.14 ± 0.15	3.04 ± 0.087	3.15 ± 0.18
DSKKIKVDSPDDPFMTK [GAL11]	2.55 ± 0.075	2.57 ± 0.074	2.5 ± 0.057	2.82 ± 0.04
DSLASELTLAEQQVKEA [SMC4]	3.24 ± 0.21	3.53 ± 0.11	3.23 ± 0.15	3.39 ± 0.23
DSNYKWDLSVEDALYLG [PRE2]	3.34 ± 0.085	3.35 ± 0.082	3.33 ± 0.07	3.39 ± 0.049
DSQDYILSINAIDYEPE [SMC1]	3.25 ± 0.068	3.06 ± 0.058	3 ± 0.046	3.02 ± 0.038
DSRLSRKQIDETQVLVS [BRR2]	1.61 ± 0.055	1.83 ± 0.073	1.82 ± 0.072	2.13 ± 0.041
DSSGVNDLHHSEKKYAE [RPN3]	2.69 ± 0.11	3.24 ± 0.16	2.88 ± 0.21	–
DSTDNENSGKEMDEKSY [LIN1]	–	3.26 ± 0.14	2.88 ± 0.29	3.49 ± 0.14
DSTNLSDDAAQFMKRFP [ECM29]	2.65 ± 0.11	2.79 ± 0.073	1.45 ± 0.092	3.06 ± 0.1
DSVILASSKAVTRGISV [PRE1]	2.14 ± 0.045	2.42 ± 0.048	2.28 ± 0.056	2.34 ± 0.041
DSYGQGSMTKTWYVGNS [SSN2]	2.94 ± 0.13	3.09 ± 0.16	3.34 ± 0.16	3.05 ± 0.088
DTIDNVKSKIQDKEGIP [RPS31]	3.22 ± 0.098	3.46 ± 0.089	3.38 ± 0.05	3.57 ± 0.075
DTLKLRENLHILNEVFT [RRP6]	2.26 ± 0.092	2.87 ± 0.06	2.59 ± 0.058	2.4 ± 0.051
DTLNETNLKMKRKWSYV [RRP43]	2.24 ± 0.061	2.56 ± 0.04	2.98 ± 0.1	2.61 ± 0.073
DTNVVLQAIDLLENPNC [DIS3]	2.84 ± 0.07	2.75 ± 0.063	2.63 ± 0.074	2.73 ± 0.046
DTPEGEACGLVKNLALM [RET1]	2.14 ± 0.098	2.01 ± 0.13	3.21 ± 0.1	1.71 ± 0.28
DTRFGGRMDMTRLYDYE [SSN2]	3.14 ± 0.1	3.23 ± 0.081	3.47 ± 0.045	3.21 ± 0.061
DTRITHLLRQTNAFLDS [SNF2]	1.5 ± 0.037	1.47 ± 0.033	1.54 ± 0.064	1.61 ± 0.024
DTVSWFKQKYDADVLDK [RPL11A]	2.06 ± 0.044	1.74 ± 0.044	1.64 ± 0.077	1.97 ± 0.039
DVECIKAKSHFTNIISR [YJL039C/NUP192]	3.04 ± 0.092	3.1 ± 0.098	2.73 ± 0.078	2.97 ± 0.056
DVKKRTYEAIDVPGREL [RPB2]	1.99 ± 0.15	3.35 ± 0.16	2.62 ± 0.23	3.57 ± 0.17
DVKVIMATNKIETLDPA [RPT2]	3.17 ± 0.091	2.96 ± 0.093	2.92 ± 0.07	2.9 ± 0.068
DVLHPNRANVSKDELRE [RPS24A]	3.35 ± 0.086	3.29 ± 0.11	3.19 ± 0.092	3.1 ± 0.086
